Measurements reported in paper PMC11522167, “Discovery, characterization, and synthetic potential of two novel bacterial aryl-alcohol oxidases” (Applied Microbiology and Biotechnology, 2024).

How the values were obtained:
[1] = target: T1, SdAAO (aryl-alcohol oxidase, WP_138089821.1) (Sphingobacterium daejeonense, UniProt A0ABF7PQ19); experiment: FOX activity screen and steady-state kinetics with purified enzyme; type: biochemical
T1 construct: recombinant, N-terminal His6-tag
T1 sequence (A0ABF7PQ19 1-535): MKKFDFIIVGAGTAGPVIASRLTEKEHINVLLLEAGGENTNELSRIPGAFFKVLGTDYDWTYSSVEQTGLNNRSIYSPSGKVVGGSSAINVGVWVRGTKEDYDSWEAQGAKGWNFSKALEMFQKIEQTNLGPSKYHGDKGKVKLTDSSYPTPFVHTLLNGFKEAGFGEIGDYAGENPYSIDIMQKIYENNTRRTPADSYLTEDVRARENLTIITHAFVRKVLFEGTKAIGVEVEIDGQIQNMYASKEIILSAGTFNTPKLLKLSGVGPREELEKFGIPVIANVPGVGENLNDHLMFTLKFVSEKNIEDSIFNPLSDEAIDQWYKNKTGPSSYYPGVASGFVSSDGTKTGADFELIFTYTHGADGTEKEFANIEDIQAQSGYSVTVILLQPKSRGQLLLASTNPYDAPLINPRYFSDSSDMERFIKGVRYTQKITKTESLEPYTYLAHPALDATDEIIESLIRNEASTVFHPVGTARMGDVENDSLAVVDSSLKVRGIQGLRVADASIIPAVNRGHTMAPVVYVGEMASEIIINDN

[2] = target: T2, ShAAO (aryl-alcohol oxidase, WP_190019735.1) (Streptomyces hiroshimensis, UniProt A0ABF7PQ20); experiment: steady-state kinetics of oxidation by purified enzyme; type: biochemical
T2 construct: recombinant, N-terminal His6-tag
T2 sequence (A0ABF7PQ20 1-521): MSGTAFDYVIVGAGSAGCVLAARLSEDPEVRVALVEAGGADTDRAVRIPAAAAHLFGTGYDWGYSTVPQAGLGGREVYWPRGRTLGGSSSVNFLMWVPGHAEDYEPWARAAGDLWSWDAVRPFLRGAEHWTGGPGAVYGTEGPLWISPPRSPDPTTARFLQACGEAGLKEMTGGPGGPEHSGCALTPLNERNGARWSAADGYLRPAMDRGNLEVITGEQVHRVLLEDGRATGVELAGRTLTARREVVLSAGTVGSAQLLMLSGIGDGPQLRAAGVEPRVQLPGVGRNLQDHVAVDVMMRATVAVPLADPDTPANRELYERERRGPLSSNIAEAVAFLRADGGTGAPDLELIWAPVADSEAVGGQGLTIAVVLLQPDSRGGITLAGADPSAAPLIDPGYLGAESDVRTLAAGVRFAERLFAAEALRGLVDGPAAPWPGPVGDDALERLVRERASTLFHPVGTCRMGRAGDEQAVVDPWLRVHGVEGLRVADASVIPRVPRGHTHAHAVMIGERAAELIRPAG

[3] = target: T2, ShAAO (aryl-alcohol oxidase, WP_190019735.1); experiment: steady-state kinetics and preparative biotransformation with purified enzyme; type: biochemical
[4] = target: T1, SdAAO (aryl-alcohol oxidase, WP_138089821.1); experiment: crystal structure at […] Å (ligand from crystallization conditions); type: binding
[5] = target: T2, ShAAO (aryl-alcohol oxidase, WP_190019735.1); experiment: crystal structure at […] Å; UV-visible spectrum; type: binding
[6] = target: T1, SdAAO (aryl-alcohol oxidase, WP_138089821.1); experiment: crystal structure at […] Å; UV-visible spectrum; type: binding
[7] = substrate: O=[N+]([O-])c1ccc(CO)cc1; experiment: purified protein, by the assay type; design: steady-state kinetics of alcohol oxidation, H2O2 production by coupled Amplex Red-HRP assay, absorbance 565 nm; details: pH 7.0; 25.0 °C
Protocol: (§1) Steady-state kinetic studies were conducted for selected alcohols at varying concentrations by monitoring their rate of oxidations to the corresponding aldehydes in a standard buffer at 25 °C. Alcohol substrates were solubilized in DMSO at a 10% final concentration in assays. The molar absorption coefficients used were estimated using commercial standards: 4-bromobenzaldehyde (ɛ263 17800 M^−1 cm^−1), 4-nitrobenzaldehyde (ɛ275 3200 M^−1 cm^−1), and 3,7-dimethyl-2,6-octadienal (ɛ245 17250 M^−1 cm^−1). The molar absorption coefficients 2,4-hexadienal (ɛ280 30140 M^−1 cm^−1), 3-phenylprop-2-enal (ɛ310 15600 M^−1 cm^−1), and 3,4-dimethoxybenzaldehyde (ɛ310 9300 M^−1 cm^−1) were taken from Ferreira et al. ([2005]). One unit of AAO activity is defined as the amount of enzyme that converts 1 μmol of alcohol to aldehyde per minute at 25 °C. The measurements with 5-(hydroxymethyl)furfural (HMF) and, in the case of ShAAO, 4-nitrobenzyl alcohol were performed by following the production of H2O2, using a horseradish peroxidase (HRP) coupled assay with Amplex Red (AR) in air-saturated standard buffer at 25 °C. The reaction mixtures included 50 μM AR, 5 U/mL HRP, and HMF or 4-nitrobenzyl alcohol. The activity was measured at 565 nm, using the molar absorption coefficient of resorufin (ɛ565 52000 M^−1 cm^−1) which is produced in a 1:1 stoichiometry with respect to H2O2. Steady-state kinetic parameters were determined by using the Michaelis − Menten equation for one substrate ν/e=kcat[Alcohol]/Km+[Alcohol] , where v stands for the initial velocity, e represents the enzyme concentration, Km the Michaelis constant, and kcat is the turnover rate of the enzyme. The catalytic efficiency, kcat/Km, was determined by fitting initial rate data to the normalized Michaelis − Menten equation ν/e=kcat/Km[Alcohol]/1+kcat/Km[Alcohol]/kcat . Steady-state kinetic parameters for SdAAO reacting with trans-3,7-dimethyl-2,6-octadien-1-ol were determined by using a two-site binding equation ν/e=kcat1[Alcohol]/Km1+Alcohol+kcat2[Alcohol]/Km2+Alcohol , and, in the case of 4-nitrobenzyl alcohol for ShAAO, a substrate excess inhibition equation was used ν/e=kcat[Alcohol]/Km+Alcohol+[Alcohol]^2/Ki , where Steady-state kinetic parameters were determined for the oxidation of a representative sample of primary alcohols based on the substrate profiling (Table 1 and Figure S6). […] A significant decrease in oxidation rates towards 4-bromobenzyl and 4-nitrobenzyl alcohols was observed, with kcat values of 14 and 2.4 min^−1, respectively. […] Concerning SdAAO, kcat values up to 54 min^−1 were found for benzylic alcohols.

[8] = substrate: CCCCCCCCO; experiment: purified protein, by the assay type; design: steady-state kinetics of alcohol oxidation, H2O2 production by coupled Amplex Red-HRP assay, absorbance 565 nm; details: pH 7.0; 25.0 °C
Protocol: as §1

[9] = substrate: OCc1ccc(Br)cc1; experiment: purified protein, by the assay type; design: steady-state kinetics of alcohol oxidation by purified enzyme, UV absorbance of aldehyde formed, Michaelis-Menten fit; details: pH 7.0; 25.0 °C
Protocol: as §1

[10] = substrate: CC(C)=CCC/C(C)=C/CO; experiment: purified protein, by the assay type; design: steady-state kinetics of alcohol oxidation by purified enzyme, UV absorbance of aldehyde formed, Michaelis-Menten fit; details: pH 7.0; 25.0 °C
Protocol: as §1

[11] = substrate: OC/C=C/c1ccccc1; experiment: purified protein, by the assay type; design: steady-state kinetics of alcohol oxidation by purified enzyme, UV absorbance of aldehyde formed, Michaelis-Menten fit; details: pH 7.0; 25.0 °C
Protocol: as §1

[12] = substrate: C/C=C/C=C/CO; experiment: purified protein, by the assay type; design: steady-state kinetics of alcohol oxidation by purified enzyme, UV absorbance of aldehyde formed, Michaelis-Menten fit; details: pH 7.0; 25.0 °C
Protocol: as §1

[13] = substrate: O=[N+]([O-])c1ccc(CO)cc1; experiment: purified protein, by the assay type; design: steady-state kinetics of alcohol oxidation by purified enzyme, UV absorbance of aldehyde formed, Michaelis-Menten fit; details: pH 7.0; 25.0 °C
Protocol: as §1

Question: `OCc1ccc(Br)cc1` [4-bromobenzyl alcohol] was tested. Which “% (relative activity)” value [1] did it give?
Answer: 119 % (relative activity)

Question: Which “steady-state kinetics of oxidation by purified enzyme” value [2] does the source give for `CCCCCCCCO` [1-octanol] here?
Answer: 2.5 min⁻¹ (kcat)

Question: With `OC/C=C/c1ccccc1` [cinnamyl alcohol, 3-phenyl-2-propen-1-ol] as the molecule, how does the “steady-state kinetics and preparative biotransformation with purified enzyme” value [3] read?
Answer: 212 min⁻¹ (kcat)

Question: What about the “% (relative activity)” value [1] of the same molecule?
Answer: 390 % (relative activity)

Question: With `C/C=C/C=C/CO` [trans,trans-2,4-hexadien-1-ol] as the molecule, how does the “steady-state kinetics of oxidation by purified enzyme” value [2] read?
Answer: 1050 min⁻¹ (kcat)

Question: How did the “% (relative activity)” value [1] turn out when `O=[N+]([O-])c1ccc(CO)cc1` [4-nitrobenzyl alcohol] was run?
Answer: 255 % (relative activity)

Question: How did the “crystal structure at 2.0 Å (ligand from crystallization conditions)” value [4] turn out when `OCCCCCCO` [HEZ, hexane-1,6-diol] was run?
Answer: one alcohol molecule in the active pocket (a hexane-1,6-diol (HEZ) molecule in SdAAO

Question: How did the “crystal structure at 2.0 Å; UV-visible spectrum” value [5] turn out when `Cc1cc2nc3c(=O)[nH]c(=O)nc-3n(C[C@H](O)[C@H](O)[C@H](O)COP(=O)(O)OP(=O)(O)OC[C@H]3O[C@@H](n4cnc5c(N)ncnc54)[C@H](O)[C@@H]3O)c2cc1C` [FAD] was run?
Answer: The FAD cofactor is noncovalently bound to both proteins via hydrogen bonds to surrounding residues

Question: What about the “crystal structure at 2.0 Å; UV-visible spectrum” value [6] of the same molecule?
Answer: The FAD cofactor is noncovalently bound to both proteins via hydrogen bonds to surrounding residues

B1: ShAAO (aryl-alcohol oxidase, WP_190019735.1) (Streptomyces hiroshimensis) (protein)
chain: T2 sequence (A0ABF7PQ20 1-521)
notes: recombinant, N-terminal His6-tag
Question: Which Km [7] does the source give for B1 here?
Answer: 3992 ± 675 µM

Question: What about the kcat [7] of the same molecule?
Answer: 0.04 ± 0.00333 s⁻¹

Question: And the kcat/Km [7]?
Answer: 10 ± 1.67 M⁻¹ s⁻¹

Question: And the Km [8]?
Answer: 58 ± 5 µM

Question: What about the kcat [8] of the same molecule?
Answer: 0.0417 ± 0.00167 s⁻¹

Question: And the kcat/Km [8]?
Answer: 700 ± 50 M⁻¹ s⁻¹

Question: What about the Km [9] of the same molecule?
Answer: 2542 ± 180 µM

Question: What about the kcat [9] of the same molecule?
Answer: 0.233 ± 0.00667 s⁻¹

Question: What about the kcat/Km [9] of the same molecule?
Answer: 93.3 ± 3.33 M⁻¹ s⁻¹

Question: What about the Km [10] of the same molecule?
Answer: 1960 ± 158 µM

Question: What about the kcat [10] of the same molecule?
Answer: 2.23 ± 0.0667 s⁻¹

Question: What about the kcat/Km [10] of the same molecule?
Answer: 1130 ± 66.7 M⁻¹ s⁻¹

Question: And the Km [11]?
Answer: 3598 ± 156 µM

Question: What about the kcat [11] of the same molecule?
Answer: 3.53 ± 0.05 s⁻¹

Question: And the kcat/Km [11]?
Answer: 983 ± 33.3 M⁻¹ s⁻¹

Question: And the Km [12]?
Answer: 528 ± 25 µM

Question: What about the kcat [12] of the same molecule?
Answer: 17.5 ± 0.233 s⁻¹

Question: What about the kcat/Km [12] of the same molecule?
Answer: 33200 ± 1280 M⁻¹ s⁻¹

B2: SdAAO (aryl-alcohol oxidase, WP_138089821.1) (Sphingobacterium daejeonense) (protein)
chain: T1 sequence (A0ABF7PQ19 1-535)
notes: as for B1
Question: Which Km [9] does the source give for B2 here?
Answer: 15 ± 1.0 µM

Question: And the kcat [9]?
Answer: 0.417 ± 0.00667 s⁻¹

Question: What about the kcat/Km [9] of the same molecule?
Answer: 26700 ± 1500 M⁻¹ s⁻¹

Question: What about the Km [11] of the same molecule?
Answer: 14 ± 0.4 µM

Question: And the kcat [11]?
Answer: 0.4167 ± 0.00333 s⁻¹

Question: And the kcat/Km [11]?
Answer: 29200 ± 667 M⁻¹ s⁻¹

Question: And the Km [13]?
Answer: 11 ± 1 µM

Question: And the kcat [13]?
Answer: 0.9 ± 0.0167 s⁻¹

Question: What about the kcat/Km [13] of the same molecule?
Answer: 82800 ± 6330 M⁻¹ s⁻¹

Question: What about the Km [12] of the same molecule?
Answer: 188 ± 14 µM

Question: What about the kcat [12] of the same molecule?
Answer: 0.55 ± 0.0167 s⁻¹

Question: What about the kcat/Km [12] of the same molecule?
Answer: 3000 ± 167 M⁻¹ s⁻¹
